The text below walks through data of patent US20230265208A1 (Dana-Farber, published 2023).

Assay [1] concerns the target T1, MUC1-ECD (human, UniProt P15941 1098-1155).
T1 construct: also called Ag MUC1-ECD; Antigen MUC1-ECD
T1 sequence: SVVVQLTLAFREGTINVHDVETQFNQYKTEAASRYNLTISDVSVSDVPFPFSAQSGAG
Put plainly: SPR (Biacore), 1:1 fit; panel 'GO-702h'; analyte cell empty, antigen at 1.875-60 nM by the legend; same numbers as Table 7 prints for VH5 + VL3.

For another assay, the target named is T2, WT p58/p62 heterodimer (human, UniProt P15941 1036-1097, limits assumed).
T2 construct: domain: 62 amino acid region (p62) of the SEA domain; Construct limits and tags are not described; also called p62/p58 heterodimer; WT protein
T2 sequence 1: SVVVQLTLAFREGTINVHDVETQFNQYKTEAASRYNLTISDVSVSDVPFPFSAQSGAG
T2 sequence 2: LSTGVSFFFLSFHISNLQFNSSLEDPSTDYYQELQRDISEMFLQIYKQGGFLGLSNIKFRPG
Put plainly: left panel, Absorbance against Concentration (nM). The panel does not name the target. The axis points to the ELISA on WT p58/p62 of the legend, while the legend's first sentence speaks of MFI on HCT116 cells.

Assay [2] deals with T1, MUC1-ECD. The assay can be described thus: SPR Biacore T200, antibody on chip, MUC1-ECD analyte, 1:1 fit. A general note: In SPR one partner is held on a chip, and binding of the other changes the refractive index at the surface.

B1: GO-702h wild-type (antibody)
heavy: not shown
light: EIVLTQSPATLSLSPGERATLSCRASESVQYSGTSLMHWYQQKPGQAPRLLIYGASNVETGIPARFSGSGSGTDFTLTISSLEPEDFAVYYCQQNWKVPWTFGQGTKVEIKRTVAAPSVFIFPPSDEQLKSGTASVVCLLNNFYPREAKVQWKVDNALQSGNSQESVTEQDSKDSTYSLSSTLTLSKADYEKHKVYACEVTHQGLSSPVTKSFNRGEC
notes: copies: 2 + 2
As to B1, in the assay with MUC1-ECD [1], the Kd (commonly the equilibrium constant for the complex coming apart) came to 1.55 nM; the koff – broadly, the rate constant with which the complex falls apart – was determined as 0.000844 s⁻¹; the kon – broadly, the rate constant with which the complex forms – was 545000 M⁻¹ s⁻¹.

B2: GO-702m (antibody, V domains shown)
VH: QVQLQQSGAELMKPGASVKISCKAIGFTFNYFWIEWVKQRPGHGLEWIGEILPGTGSTNYNEKFKGKAIFTADTSSNTAYMQLRSLTSEDSAVYYCVRYDYTSSMDYWGQGTSVTVSS
VL: DIVLTQSPGSLAVSLGQSVTISCRASESVQYSGTSLMHWYQQKPGQPPKLLIYGASNVETGVPARFSGSGSGTDFSLNIHPVEEDDIAMYFCQQNWKVPWTFGGGTKLEIK
notes: Mouse monoclonal antibody, detected with anti-mouse IgG kappa
Regarding B2, in the assay with WT p58/p62 heterodimer, the EC50 – broadly, the concentration needed to bring the measured effect to its halfway point – came out at 0.6 nM.

B3: VH1 + VL4 (antibody, V domains shown)
VH: QVQLVQSGAEVKKPGSSVKVSCKASGYAFSNFWMNWVRQAPGQGLEWMGQIYPGDGDTNYNGKFKGRVTITADKSTSTAYMELSSLRSEDTAVYYCARSYYRSAWFAYWGQGTLVTVSS
VL: AIQLTQSPSSLSASVGDRVTITCRASQSIGTSIHWYQQKPGKAPKLLIYYASESISGVPSRFSGSGSGTDFTLTISSLQPEDFATYYCQQSNNWPLTFGGGTKVEIK
Consider B3, for which, in the assay with MUC1-ECD [2], the Kd is 7.13 nM, the koff was 0.00315 s⁻¹ and the kon was found to be 442000 M⁻¹ s⁻¹.

B4: VH5 + VL2 (antibody, V domains shown)
VH: EVQLVQSGAEVKKPGESLKISCKGSGYAFSNFWMNWVRQMPGKGLEWMGQIYPGDGDTNYNGKFKGQVTISADKSISTAYLQWSSLKASDTAMYYCARSYYRSAWFAYWGQGTLVTVSL
VL: EIVMTQSPATLSVSPGERATLSCRASQSIGTSIHWYQQKPGQAPRLLIYYASESISGIPARFSGSGSGTEFTLTISSLQSEDFAVYYCQQSNNWPLTFGGGTKVEIK
Consider B4, for which, in the assay with MUC1-ECD [2], the Kd was found to be 2.75 nM, the koff is 0.00125 s⁻¹ and the kon was 455000 M⁻¹ s⁻¹.

B5: VH2 + VL3 (antibody, V domains shown)
VH: QVQLVQSGAEVKKPGASVKVSCKASGYAFSNFWMNWVRQAPGQGLEWMGQIYPGDGDTNYNGKFKGRVTMTRDTSTSTVYMELSSLRSEDTAVYYCARSYYRSAWFAYWGQGTLVTVSS
VL: EIVLTQSPATLSLSPGERATLSCRASQSIGTSIHWYQQKPGQAPRLLIYYASESISGIPARFSGSGSGTDFTLTISSLEPEDFAVYYCQQSNNWPLTFGGGTKVEIK
On to B5, for which, in the assay with MUC1-ECD [2], the affinity, expressed as Kd, was 3.6 nM; the koff was 0.00145 s⁻¹; the kon stood at 404000 M⁻¹ s⁻¹.

B6: VH1 + VL3 (antibody, V domains shown)
VH: QVQLVQSGAEVKKPGSSVKVSCKASGYAFSNFWMNWVRQAPGQGLEWMGQIYPGDGDTNYNGKFKGRVTITADKSTSTAYMELSSLRSEDTAVYYCARSYYRSAWFAYWGQGTLVTVSS
VL: EIVLTQSPATLSLSPGERATLSCRASQSIGTSIHWYQQKPGQAPRLLIYYASESISGIPARFSGSGSGTDFTLTISSLEPEDFAVYYCQQSNNWPLTFGGGTKVEIK
Consider B6, for which, in the assay with MUC1-ECD [2], binding was characterised by a dissociation constant (Kd) of 5.23 nM, the koff amounted to 0.00222 s⁻¹ and the kon came to 425000 M⁻¹ s⁻¹.

B7: VH5 + VL3 (antibody, human IgG1, kappa, V domains shown)
VH: EVQLVQSGAEVKKPGESLKISCKGSGFTFNYFWIEWVRQMPGKGLEWMGEILPGTGSTNYNEKFKGQVTISADKSISTAYLQWSSLKASDTAMYYCARYDYTSSMDYWGQGTLVTVSS
VL: EIVLTQSPATLSLSPGERATLSCRASESVQYSGTSLMHWYQQKPGQAPRLLIYGASNVETGIPARFSGSGSGTDFTLTISSLEPEDFAVYYCQQNWKVPWTFGQGTKVEIKR
notes: Full-length humanized IgG expressed in HEK293 and purified on protein A. Constant regions not specified; also called #23 (inferred from 5x5 numbering)
Take B7: in the assay with MUC1-ECD [2], the Kd was 1.55 nM, the koff worked out at 0.000844 s⁻¹ and the kon was 545000 M⁻¹ s⁻¹.
